pKd: −log10 of the molar value.
How the values were obtained:
[1] = target: antibody PGT128 (human); assay: SPR
[2] = target: antibody PGT135 (human); assay: SPR
Sequence of antibody PGT135 (human) (heavy, as listed by the source, chain 1 of 2): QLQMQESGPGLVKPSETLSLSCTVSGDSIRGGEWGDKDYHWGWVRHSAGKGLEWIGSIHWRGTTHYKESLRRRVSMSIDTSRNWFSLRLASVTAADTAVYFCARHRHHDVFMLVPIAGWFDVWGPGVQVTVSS
Sequence of antibody PGT135 (human) (light, as listed by the source, chain 2 of 2): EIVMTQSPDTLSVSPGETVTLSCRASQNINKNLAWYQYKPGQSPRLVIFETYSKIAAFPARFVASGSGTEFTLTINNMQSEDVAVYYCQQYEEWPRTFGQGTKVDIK

Sequence of antibody PGT128 (human) (heavy, as listed by the source, chain 1 of 2): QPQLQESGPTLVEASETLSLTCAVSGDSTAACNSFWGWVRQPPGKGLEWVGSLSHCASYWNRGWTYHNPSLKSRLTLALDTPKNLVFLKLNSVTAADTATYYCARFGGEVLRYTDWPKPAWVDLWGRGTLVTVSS
Sequence of antibody PGT128 (human) (light, as listed by the source, chain 2 of 2): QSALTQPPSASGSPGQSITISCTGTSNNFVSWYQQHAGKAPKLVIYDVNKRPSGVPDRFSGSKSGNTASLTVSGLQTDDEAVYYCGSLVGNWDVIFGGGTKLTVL

YU2 gp120 (from UniProt P35961 32-498) (natural protein)
pKd [1]: 7.96 | pKd [2]: 7.74

— article PMC4084637
